Measurements published in patent publication WO2007039645A1.

Target: VSG on Trypanosoma brucei brucei AnTat 1.1 parasites (Trypanosoma brucei brucei AnTat 1.1)
Assay: cell-based or functional assay
Settings: scale: % of the parasites lysed at 10 μg/ml

Chain of VSG on Trypanosoma brucei brucei AnTat 1.1 parasites (Trypanosoma brucei brucei AnTat 1.1) (P06015 30-480): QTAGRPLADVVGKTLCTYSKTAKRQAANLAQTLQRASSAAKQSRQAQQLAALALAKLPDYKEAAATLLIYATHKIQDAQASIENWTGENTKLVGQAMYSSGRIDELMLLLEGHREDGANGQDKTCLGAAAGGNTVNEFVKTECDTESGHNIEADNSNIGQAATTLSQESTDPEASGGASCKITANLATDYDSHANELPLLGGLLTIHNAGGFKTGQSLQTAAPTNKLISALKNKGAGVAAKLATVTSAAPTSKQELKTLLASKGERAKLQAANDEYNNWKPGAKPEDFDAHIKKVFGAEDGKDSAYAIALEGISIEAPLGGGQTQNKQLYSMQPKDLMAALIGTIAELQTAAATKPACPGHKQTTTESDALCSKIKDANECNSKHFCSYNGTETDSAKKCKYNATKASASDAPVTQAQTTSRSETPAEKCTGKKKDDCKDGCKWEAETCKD

## NbAn33-Tr-apoL-I (from UniProt O14791 28-342)
  trypanolytic activity: 100
